Assay results as given in patent US20240400698A1, “ANTI-CHEMOKIN LIKE RECEPTOR 1 ANTIBODIES AND THEIR THERAPEUTIC APPLICATIONS” (OSE IMMUNOTHERAPEUTICS, priority 2018, published 2024).

Columns and labels:
CMKLR1 receptor = target: T1, CMKLR1 receptor (Homo sapiens, UniProt Q99788); test: Competition assay of Chemerin-dependent β-arrestin recruitment by CMKLR1 receptor, CHO-K1 CMKLR1 cells; type: cell-based; conditions: FIG. 20B; antibody 1 μM to 1 nM, Chemerin 2 or 6 nM
T1 construct: host or cells: CHO-K1
T1 sequence (Q99788 1-373): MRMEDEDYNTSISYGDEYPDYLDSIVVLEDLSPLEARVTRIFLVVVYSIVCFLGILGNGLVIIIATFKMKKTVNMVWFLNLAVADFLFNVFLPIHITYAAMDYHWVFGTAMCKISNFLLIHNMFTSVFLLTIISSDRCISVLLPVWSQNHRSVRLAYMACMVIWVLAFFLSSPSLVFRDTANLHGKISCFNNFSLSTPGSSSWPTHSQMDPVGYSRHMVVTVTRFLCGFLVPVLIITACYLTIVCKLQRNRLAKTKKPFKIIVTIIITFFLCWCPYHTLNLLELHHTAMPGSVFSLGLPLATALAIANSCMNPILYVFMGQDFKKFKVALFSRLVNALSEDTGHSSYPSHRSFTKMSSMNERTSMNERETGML
Procedure: The day before the assay, CHO-K1 CMKLR1 cells (Discover'X ref 93-0313E2) were plated in pre-warmed cell reagent then plated in a 96-well plate at 100 μl/well of cells as (Discover'X ref 15-103) and incubated […] at 37° C., in a 5% CO2 humidified incubator. The anti-CMLKR1 antibody was diluted (22× in 7-point series of 3-fold dilutions from 1 μM to 1 nM) and cells were incubated 30 min at 37° C. with the antibody. […] The luminescence was measured after Working Detection Solution addition to the cells with a plate reader with 0.5 s integration.

MC38 cells = test: MC38 colon carcinoma model; type: in vivo, mice; conditions: FIG. 9D, 20 μg/injection i.p. for 3 weeks, vs isotype control
Procedure: FIG. 9. […] Two mice models were studied, and animals received isotype control antibody (3G8) (x) or anti-CMKLR1 (2G1) ( ) at 20 μg/injection intraperitoneally for 3 weeks. A-C. Results in the CT26 colon carcinoma model comparing single treatment with p84 (A) and 2G1 (B) with combined therapy with both antibodies (C). D: Results in the MC38 colon carcinoma model.
8-week old C57bl/6J male mice were anesthetized with 3% of isoflurane. Mice were shaved on the flank and MC38 cells (0.5·10^6 cells/mouse) cell lines were injected subcutaneously with an insulinic syringe (30 Gauges) in 50 μL of PBS. Another model was used, in which 8-week old Balb/c male mice were anesthetized with 3% of isoflurane. Mice were shaved on the flank and CT26 cells (1·10^6 cells/mouse) were injected subcutaneously with an insulinic syringe (30 Gauges) in 50 μL of PBS.
The agonistic anti-CMKLR1 antibody (2G1) or an anti-SIRPa antibody (p84-anti-mouse SIRPa from Merck Millipore) (SIRPa is a new checkpoint inhibitor) were injected once a week (20 μg/injection) intraperitoneally for 3 weeks starting at d4 after tumor inoculation alone or combined.

[1] = tested on: mice, peritonitis induced by Zymosan A; test: Zymosan A peritonitis model (sepsis); type: in vivo; conditions: preventive injection, vs isotype control
Procedure: FIG. 7. […] Preventive injection of anti-CMKLR1 was performed before Zymosan A injection (1 mg per mouse in 1 mL): RvE1 (1 μg per mouse) (•), 2G1 antibody (10 μg per mouse) ( ) or isotype control antibody (x). A. PMN numbered during the first 50 hours after Zymosan A injection. B. Macrophages numbered during the first 50 hours after Zymosan A injection. C. Resolution index.
Common peritonitis is induced by intraperitoneal injection of Zymosan A® (1 mg per mouse in 1 mL). Preventive injection of anti-CMKLR1 was performed 5 minutes before Zymosan A injection: RvE1 (1 μg per mouse), 2G1 antibody (10 μg per mouse). Murine peritoneal polymorphonuclear neutrophil (PMN) and macrophages were collected at 2-4-8-16-24 and 48 h after Zymosan A injection and numbered by flow cytometry analysis to determinate the resolution index (Bannenberg et al., 2005).

[2] = tested on: Akt and Erk proteins (CMKLR1 pathway); test: Western blot of Akt and Erk phosphorylation in mice M1 macrophages; type: cell-based; conditions: FIG. 18; mice M1, 2 μg/mL, after 10 to 30 minutes of incubation
Procedure: FIG. 18. Study of the CMKLR1 pathway activation: Akt and Erk phosphorylation. Western blot analysis of the ERK and AKT activation pathway after 5, 10 and 30 minutes of mice M1 cell incubation with 2G1 or RvE1. The Phosphorylated protein Akt or Erk were assessed using P-Akt antibody or P-Erk antibody (p44/42). A. Erk and Akt activation with RvE1. B. Erk and Akt activation with 2G1.
Mice pro-inflammatory macrophages (M1) were generated from bone marrow with M-CSF and polarized with IFN-gamma (IFNg) and LPS. Briefly, bone marrow cells were collected by flushing the femoral bone and cultured with 100 ng/mL of mM-CSF for 5 days and then polarized with 20 ng/ml of IFNg and 100 ng/mL of LPS for 24 h. Then, they were deprived of FBS for 24 hours with RPMI FBS 2% medium. Finally, mice M1 were treated with 2 μg/mL of 2G1 antibody at different times: 5, 10 and 30 minutes. Cells were collected in a RIPA buffer. The protein concentration was measured by a BCA protein kit assay. Proteins were denatured by heating at 95° C. for 5 minutes and diluted in DTT and Laemmli solution. After migration and transfer, the nitrocellulose membrane was blocked with 5% BSA in TBS-T for 2 hours. […] Western blot Images were quantified by Multi Gauge software

[3] = target: T2, CMKLR1 EL3 loop (SEQ ID No: 18) (Homo sapiens, UniProt Q99788); test: ELISA binding on CMKLR1 peptide; conditions: OD at 450 nm, FIG. 12, vs isotype control
T2 sequence (Q99788 275-307 limits assumed): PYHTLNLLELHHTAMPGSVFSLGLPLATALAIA
Procedure: FIG. 12. Binding analysis of the anti-CMKLR1 antibody on a CMKLR1 peptide by ELISA. The binding of the 2G1 antibody ( ) on the CMKLR1 EL3 loop (SEQ ID No: 18) was compared to the isotype control antibody (3G8) (x) by measuring the OD at 450 nm by ELISA.
CMKLR1 peptide (273NH2-[…]-COOH305) (SEQ ID No: 18) (5 μg/ml) was coated in borate buffer overnight. Saturation was performed with PBS-Tween 0.1%-Gelatin 0.25% for 2 hours at 37° C. Then, 2G1 or hIgG1 antibodies were added at different concentrations for 2 hours at 37° C. […] The colorimetric reaction was read with TECAN.

B1: 2G1: chimeric anti-CMKLR1 antibody, murine variable regions (SEQ ID No: 10 and 17), human IgG1 constant regions; VH-CDR3 variant LI (antibody, V domains shown)
VH: METDTLLLWVLLLWVPGSTGDEVQLVASGGGLVQPGGSLKLSCAASGFTFSSYGMSWVRQTPDRRLELVATINRYGGSTYYPDSVKGRFTISRDNAKNTLYLQMSSLKSEDTAMYYCPRLIYYGNEGDSWGQGTTLTVSS
VL: METDTLLLWVLLLWVPGSTGDQIVLTQSPAIMSASPGEKVTMTCSASSSVSFMHWYQQKSGTSPKRWIYDTTKLTSGVPARFSGSGSGTFYSLTISSMEAEDAATYYCQQWNSKPPLTFGPGTKLELKR
modifications: human IgG1 constant regions
notes: VH-CDR3 variant LI
effect on chemerin-dependent activation of the beta-arrestin (CMKLR1 receptor): did not significantly modify chemerin-dependent activation of the beta-arrestin | tumor growth (MC38 cells): did show an efficacy in the inhibition of the tumor growth | PMNs number ([1]; FIG. 7A): slightly less | macrophages number ([1]; FIG. 7B): slightly less | resolution index ([1]; FIG. 7C): better resolution index | activation (phosphorylation) of Akt protein [2]: able to induce the activation | activation (phosphorylation) of Erk protein [2]: able to induce the activation | binding to the polypeptide forming the loop EL3 of CMKLR1 [3]: able to bind the polypeptide forming the loop EL3 of CMKLR1
